Test results published in patent US20210101970A1 (Pfizer, published 2021).

Experiments:
mouse CXCR5 [1] = target: T1, mouse CXCR5 (mouse, UniProt Q04683 1-374); experiment: flow cytometry on cells expressing mouse CXCR5
T1 construct: also called mCXCR5
T1 sequence: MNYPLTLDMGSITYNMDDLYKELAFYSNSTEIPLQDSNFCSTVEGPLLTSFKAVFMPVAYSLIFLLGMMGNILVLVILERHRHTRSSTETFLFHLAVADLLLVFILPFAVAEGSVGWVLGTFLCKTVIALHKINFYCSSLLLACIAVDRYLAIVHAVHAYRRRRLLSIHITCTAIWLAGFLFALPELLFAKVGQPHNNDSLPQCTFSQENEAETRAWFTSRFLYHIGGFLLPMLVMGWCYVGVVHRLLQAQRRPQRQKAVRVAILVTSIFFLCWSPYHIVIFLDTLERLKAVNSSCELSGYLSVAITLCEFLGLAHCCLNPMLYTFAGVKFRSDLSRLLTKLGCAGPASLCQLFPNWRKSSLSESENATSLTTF

human CXCR5 [2] = target: T2, human CXCR5 (human, UniProt P32302 1-372); experiment: flow cytometry, B cells from human PBMCs (FIG. 5); comparator 11A7
T2 construct: also called hCXCR5; C-X-C chemokine receptor type 5
T2 sequence: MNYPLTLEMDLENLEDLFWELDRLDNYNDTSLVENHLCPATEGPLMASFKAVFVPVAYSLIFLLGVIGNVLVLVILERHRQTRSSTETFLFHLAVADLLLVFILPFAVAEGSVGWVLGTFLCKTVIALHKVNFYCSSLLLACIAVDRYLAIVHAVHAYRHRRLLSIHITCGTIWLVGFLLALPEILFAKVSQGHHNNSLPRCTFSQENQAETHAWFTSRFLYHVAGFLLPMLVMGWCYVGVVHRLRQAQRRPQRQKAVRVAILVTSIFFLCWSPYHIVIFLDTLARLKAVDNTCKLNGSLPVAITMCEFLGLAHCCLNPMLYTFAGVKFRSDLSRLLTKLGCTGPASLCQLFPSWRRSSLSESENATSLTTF

human CXCR5 [3] = target: T2, human CXCR5; experiment: cell-based or functional assay
XC280 = target: T3, XC280 (human, UniProt P32302 2-372); experiment: flow cytometry on HEK-293T cells transiently expressing the FLAG-tagged mutein; ratio of gMFI of the antibody to gMFI of anti-FLAG PE
T3 construct: also called hCXCR5 W19K
T3 sequence: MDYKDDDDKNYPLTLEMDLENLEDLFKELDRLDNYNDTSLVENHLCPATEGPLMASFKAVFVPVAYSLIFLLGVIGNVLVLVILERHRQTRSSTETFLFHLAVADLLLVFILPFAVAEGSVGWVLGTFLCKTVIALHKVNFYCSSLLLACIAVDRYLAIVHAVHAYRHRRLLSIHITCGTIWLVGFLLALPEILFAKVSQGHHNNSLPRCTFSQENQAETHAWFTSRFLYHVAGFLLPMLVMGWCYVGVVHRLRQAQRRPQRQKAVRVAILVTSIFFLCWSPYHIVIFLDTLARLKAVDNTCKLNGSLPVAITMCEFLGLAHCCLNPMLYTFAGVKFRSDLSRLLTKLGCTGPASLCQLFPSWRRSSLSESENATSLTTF
Protocol: The cells were analyzed by flow cytometry using an Accuri (BD Biosciences Franklin Lakes, N.J.). The geometric mean fluorescence intensity (gMFI) was determined and the ratio for the gMFI of each CXCR5 antibody and anti-flag was calculated.

human CXCR5 [4] = target: T2, human CXCR5; experiment: flow cytometry, human PBMC B cells
Protocol: (§1) The apparent affinity for cell surface CXCR5 of chimeric and humanized CXCR5 fucosylated and afucosylated antibodies was assessed. More specifically, to determine the apparent affinity of chimeric and humanized CXCR5 antibodies to CXCR5-expressing cells, cell binding experiments were performed on human and cynomolgus monkey peripheral blood mononuclear cells (PBMCs) and human tonsillar mononuclear cells (TMCs). The apparent affinity of CXCR5 mab binding to CXCR5+ cells (B cells, bona fide Tfh cells, and circulating Tfh-like cells) was calculated as the EC50 of equilibrium binding titration curves in which the geometric mean fluorescence intensity (gMFI) of the antigen binding population was quantified by flow cytometry.
(§2) Following isolation, PBMCs were plated at a density of 1.0×10⁵ cells per well and CD4+ TMCs were plated at a density of 2.0×10⁵ cells per well in isolation buffer (PBS containing 1% FBS and 1 mM EDTA) in 96 well U-bottom plates. The plates were then centrifuged at 1500 rpm for 5 minutes at room temperature. PBMCs and CD4+ TMCs were resuspended in Fluorescence-activated cell sorting (FACS) buffer (PBS containing 1% FBS) containing human crystallized fragment Fc block (2 μL per well; Biolegend) and 4-fold serial dilutions of the antibodies (11-point dilution series, beginning at 5000 ng/mL for PBMCs and 312.5 ng/mL for CD4+ TMCs) and incubated on ice for 2 hours. PBMCs and CD4+ TMCs were then washed with FACS buffer 3 times and resuspended in 50-100 μL of FACs buffer containing fluorescent-conjugated antibodies for staining lymphocyte subsets and a fluorescent-conjugated secondary antibody against human Ig to detect CXCR5 monoclonal antibodies (mAbs). After incubation for 30 minutes at 4° C., PBMCs and CD4+ TMCs were washed with FACS buffer 2 times and resuspended in 125 μL of 0.5% paraformaldehyde (PFA) in PBS. Plates were stored at 4° C. until analysis by flow cytometry (BD LSRFortessa™ Cell Analyzer, BD Biosciences, Franklin Lakes, N.J.).
(§3) The cell binding titration curves were generated by plotting the gMFI of the antigen binding population against the log of CXCR5 antibody concentration. EC₅₀ values were determined using GraphPad Prism® (version 6.0, GraphPad Software, Inc, San Diego, Calif.) nonlinear-regression curve fits and a sigmoidal log of agonist dose-response model, according to the following equation

human CXCR5 [5] = target: T2, human CXCR5; experiment: cell-based or functional assay; remark: listed apart in the source
human CXCR5 [6] = target: T2, human CXCR5; experiment: flow cytometry, human PBMC B cells; remark: listed apart in the source
human CXCR5 [7] = target: T2, human CXCR5; experiment: flow cytometry, human PBMC Tfh-like cells
Protocol: as §1
(§4) Following isolation, PBMCs were plated at a density of 1.0×10⁵ cells per well and CD4+ TMCs were plated at a density of 2.0×10⁵ cells per well in isolation buffer (PBS containing 1% FBS and 1 mM EDTA) in 96 well U-bottom plates. The plates were then centrifuged at 1500 rpm for 5 minutes at room temperature. PBMCs and CD4+ TMCs were resuspended in Fluorescence-activated cell sorting (FACS) buffer (PBS containing 1% FBS) containing human crystallized fragment Fc block (2 μL per well; Biolegend) and 4-fold serial dilutions of the antibodies (11-point dilution series, beginning at 5000 ng/mL for PBMCs and 312.5 ng/mL for CD4+ TMCs) and incubated on ice for 2 hours. […]

cynomolgus monkey CXCR5 [8] = target: T4, cynomolgus monkey CXCR5 (cynomolgus monkey, UniProt P32302 1-372 (human entry)); experiment: flow cytometry, cynomolgus PBMC Tfh-like cells
T4 construct: also called cynoCXCR5; NHP CXCR5
T4 chain: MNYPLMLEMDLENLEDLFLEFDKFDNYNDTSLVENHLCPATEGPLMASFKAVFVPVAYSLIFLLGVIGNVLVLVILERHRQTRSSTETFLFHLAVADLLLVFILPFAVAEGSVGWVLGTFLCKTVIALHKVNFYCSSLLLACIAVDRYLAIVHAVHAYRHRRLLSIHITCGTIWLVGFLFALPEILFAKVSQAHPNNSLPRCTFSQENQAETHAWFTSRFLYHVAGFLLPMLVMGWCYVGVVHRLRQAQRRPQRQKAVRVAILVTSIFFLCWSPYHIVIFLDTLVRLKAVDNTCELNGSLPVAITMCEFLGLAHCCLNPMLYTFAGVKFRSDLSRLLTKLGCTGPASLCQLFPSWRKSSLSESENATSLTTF
Protocol: as §1, §4

cynomolgus monkey CXCR5 [9] = target: T4, cynomolgus monkey CXCR5; experiment: cell-based or functional assay
human CXCR5 [10] = target: T2, human CXCR5; experiment: flow cytometry, human tonsil Tfh cells
Protocol: Following centrifugation, red blood cell lysis was performed on the pellet using an ammonium chloride lysis buffer. Platelets were removed using a low speed centrifugation (200×g) for 10 minutes in Phosphate-Buffered Saline (PBS)/2% FBS/2 mM Ethylenediaminetetraacetic acid (EDTA). CD4+ T cells were purified out of the TMC mixture using an EasySep™ Human CD4+ T Cell Enrichment Kit, according to the manufacturer's instructions ([…] Technologies, Vancouver, BC, Canada).
as §2, §3

human CXCR5 [11] = target: T2, human CXCR5; experiment: flow cytometry, B cells from human PBMCs (FIG. 5); fucosylated
cynomolgus monkey CXCR5 [12] = target: T4, cynomolgus monkey CXCR5; experiment: flow cytometry, cynomolgus PBMC B cells
Protocol: as §1, §2, §3

human CXCR5 [13] = target: T2, human CXCR5; experiment: cell-based or functional assay; remark: listed apart in the source
XC252 = target: T5, XC252; experiment: FACS on cells expressing the CXCR5 construct
T5 construct: whole, on cells; also called hCXCR5-mL2

XC254 = target: T6, XC254; experiment: FACS on cells expressing the CXCR5 construct
T6 construct: whole, on cells; also called hCXCR5-mL2-mL3

XC255 = target: T7, XC255; experiment: FACS on cells expressing the CXCR5 construct
T7 construct: whole, on cells; also called hCXCR5-mN-mL3

XC253 = target: T8, XC253; experiment: FACS on cells expressing the CXCR5 construct
T8 construct: whole, on cells; also called hCXCR5-mN

XC256 = target: T9, XC256; experiment: FACS on cells expressing the CXCR5 construct
T9 construct: whole, on cells; also called hCXCR5-mN-mL2

human CXCR5 [14] = target: T2, human CXCR5; experiment: FACS on cells expressing the CXCR5 construct
mouse CXCR5 [15] = target: T1, mouse CXCR5; experiment: FACS on cells expressing the CXCR5 construct
XC251 = target: T10, XC251; experiment: FACS on cells expressing the CXCR5 construct
T10 construct: whole, on cells; also called hCXCR5-mL3

human CXCR5 [16] = target: T2, human CXCR5; experiment: flow cytometry on Raji cells, gMFI titration
Protocol: The apparent affinity of antibody binding to Raji cells was calculated as the EC₅₀ of equilibrium binding titration curves in which the geometric mean fluorescence intensity (gMFI) of the antigen binding population was quantified by flow cytometry and the results are shown in Table 2.

B1: 11A7 (reference antibody) (antibody, human IgG1, lambda, V domains shown)
VH: EVQLVESGGGLVQPGGSLRLSCAASGFTVSSNYMSWVRQAPGKGLEWVSVIYSGGSTYYADSVKGRFTISRHNSKNTLYLQMNSLRAEDTAVYYCARGYVVWGQGTLVTVSS
VL: QPVLTQPPSVSKDLRQTATLTCTGNSNNVGNQGATWLQQHQGHPPKLLSYKNNNRPSGISERFSASRSGNTASLTITGLQPEDEADYYCSAWDSSLSAWVFGGGTQLTVLG
notes: fucosylated
binding result (mouse CXCR5 [1]): no binding
EC50 (human CXCR5 [2]): 0.926 nM
ADCC Activity Average EC50, Human B Cells (human CXCR5 [3]): 0.00435 nM
binding result (XC280): no binding (tested: 1 or 3 µg/ml (not on the sheet))
EC50 (human CXCR5 [4]): 0.564 nM
% Inhibition CXCL13 (human CXCR5 [5]): 106%
EC50, stimulation of CXCL13-inhibited cAMP production (human CXCR5 [5]): 1.4 nM

B2: Humanized 11G2 154/155 (antibody, human IgG1, kappa, V domains shown)
VH: EVQLVESGGGLVQPGGSLRLSCAASGFTFTDFYMSWVRQAPGKGLEWVGFIRNKANGYTTEYSASVKGRFTISRDNAKNSLYLQMNSLRAEDTAVYYCARVYGSTLHYWGQGTLVTVSS
VL: DIQMTQSPSSLSASVGDRVTITCRASESVEYHGTSLMHWYQQKPGKAPKLLIYAASNVESGVPSRFSGSGSGTDFTLTISSLQPEDFATYYCQQSRKVPWTFGQGTKVEIKR
notes: fucosylated human IgG1/kappa; also called h11G2 VL XC154/VH XC155
fold greater affinity than 2C9 (human CXCR5 [6]): ≥ 10 fold
fold greater affinity than 11A7 (human CXCR5 [6]): ≥ 100 fold
fold higher affinity than 2C9 (human CXCR5 [6]): ~10 fold
fold higher affinity than 11A7 (human CXCR5 [6]): ~100 fold
EC50 (human CXCR5 [7]): 0.00592 nM
EC50 (cynomolgus monkey CXCR5 [8]): 0.00565 nM
ADCC Activity Average EC50, Human B Cells (human CXCR5 [3]): 0.254 nM
ADCC Activity Average EC50, Human Tfh Cells (human CXCR5 [3]): 0.00077 nM
ADCC Activity Average EC50, Human Tfh-like Cells (human CXCR5 [3]): 0.00798 nM
ADCC Activity Average EC50, NHP B Cells (cynomolgus monkey CXCR5 [9]): 0.0391 nM
EC50 (human CXCR5 [10]): 0.00825 nM
EC50 (human CXCR5 [11]): 0.00963 nM
EC50 (cynomolgus monkey CXCR5 [12]): 0.00413 nM
EC50 (human CXCR5 [4]): 0.00708 nM
% Inhibition CXCL13 (human CXCR5 [5]): 121%
EC50, stimulation of CXCL13-inhibited cAMP production (human CXCR5 [5]): 0.753 nM

B3: 16D7 (reference antibody) (antibody, human IgG1, kappa, V domains shown)
VH: QVQLKESGPGLVAPSESLSITCTVSGFSLIDYGVNWIRQPPGKGLEWLGVIWGDGTTYYNPSLKSRLSISKDNSKSQVFLKVTSLTTDDTAMYYCARIVYWGQGTLVTVSA
VL: DIVMTQAAPSVAVTPGASVSISCRSSKSLLHSSGKTYLYWFLQRPGQSPQLLIYRLSSLASGVPDRFSGSGSGTAFTLRISRVEAEDVGVYYCMQHLEYPYTFGGGTKLEIKR
notes: fucosylated; also called S16D7
Ca2+ flux IC50 (human CXCR5 [13]): 11.4 nM
GMFI (XC252): 27000 GMFI
GMFI (XC254): 16900 GMFI
GMFI (XC255): 1340 GMFI
GMFI (XC253): 1260 GMFI
GMFI (XC256): 1380 GMFI
GMFI (human CXCR5 [14]): 150000 GMFI
GMFI (mouse CXCR5 [15]): 958 GMFI
GMFI (XC251): 19900 GMFI
binding result (mouse CXCR5 [1]): no binding
ADCC Activity Average EC50, Human B Cells (human CXCR5 [3]): 2.59 nM
binding result (XC280): no binding (tested: 1 or 3 µg/ml (not on the sheet))
% Inhibition CXCL13 (human CXCR5 [5]): 102%
EC50, stimulation of CXCL13-inhibited cAMP production (human CXCR5 [5]): 1.1 nM
EC50 (human CXCR5 [16]): 0.65 nM
